# T1: human IL6R (human, UniProt P08887 20-358, limits assumed)
# T1 construct: Antigen of the Biacore experiments; the construct is not described (biotinylated IL6R from Peprotech was used for the selections)
# T1 sequence (looked up): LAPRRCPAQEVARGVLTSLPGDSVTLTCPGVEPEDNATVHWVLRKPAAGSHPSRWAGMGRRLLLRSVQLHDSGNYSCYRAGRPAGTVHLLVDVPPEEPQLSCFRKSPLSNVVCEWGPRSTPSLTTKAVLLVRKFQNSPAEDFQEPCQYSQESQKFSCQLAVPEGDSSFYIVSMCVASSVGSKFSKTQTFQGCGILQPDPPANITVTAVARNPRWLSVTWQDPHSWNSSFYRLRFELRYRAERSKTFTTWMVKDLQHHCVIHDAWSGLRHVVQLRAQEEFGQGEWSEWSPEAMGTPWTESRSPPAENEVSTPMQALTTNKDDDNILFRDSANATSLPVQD
# Target: T1, human IL6R
# Test: SPR (Biacore), periplasmic extract
row,binding result,Binder
1,no binding,"32C9PMP1_A4 (VHH, name in Kabat numbering, Humanized 32C9 variant) VHH: EVQLVESGGGLVQPGGSLRLSCAASGFTFDDYDIGWFRQAPGKEREWVSGISSSDGNTYYADSVKGRFTISSDNAKNTLYLQMNSLRPEDTAVYYCAREPPDSSWYLDGSPEFFKYWGQGTQVTVSS"
2,no binding,"32C9PMP1_B4 (VHH, name in Kabat numbering, Humanized 32C9 variant) VHH: EVQLVESGGGLVQPGGSLRLSCAASGFTFSDYDIGWFRQAPGKGREGVSGISSSDGNTYYADSVKGRFTISSDNAKNTLYLQMNSLKAEDTAVYYCAREPPDSSWYLDGSPEFFKYWGQGTQVTVSS"
3,no binding,"32C9PMP1_D5 (VHH, name in Kabat numbering, Humanized 32C9 variant) VHH: EVQLVESGGGLVQPGGSLRLSCAASGFTFDDYDIGWVRQAPGKGREGVSGISSSDGNTYYADSVKGRFTISSDNAKNTLYLQMNSLRPEDTAVYYCAREPPDSSWYLDGSPEFFKYWGQGTLVTVSS"
4,no binding,"32C9PMP1_D7 (VHH, name in Kabat numbering, Humanized 32C9 variant) VHH: EVQLVESGGGLVQPGGSLRLSCAASGFTFDDYDIGWVRQAPGKEREWVSGISSSDGNTYYADSVKGRFTISRDNAKNTLYLQMNSLKAEDTAVYYCAREPPDSSWYLDGSPEFFKYWGQGTLVTVSS"
5,no binding,"32C9PMP1_F9 (VHH, name in Kabat numbering, Humanized 32C9 variant) VHH: EVQLVESGGGLVQPGGSLRLSCAASGFTFSDYDIGWFRQAPGKEREWVSGISSSDGNTYYADSVKGRFTISRDNAKNTVYLQMNSLKAEDTAVYYCAREPPDSSWYLDGSPEFFKYWGQGTLVTVSS"
6,no binding,"32C9PMP1_G3 (VHH, name in Kabat numbering, Humanized 32C9 variant) VHH: EVQLVESGGGLVQPGGSLRLSCAASGFTFSDYDIGWFRQAPGKGREGVSGISSSDGNTYYADSVKGRFTISRDNAKNTLYLQMNSLRPEDTAVYYCAREPPDSSWYLDGSPEFFKYWGQGTQVTVSS"
7,no binding,"32C9PMP1_G9 (VHH, name in Kabat numbering, Humanized 32C9 variant) VHH: EVQLVESGGGLVQPGGSLRLSCAASGFTFDDYDIGWVRQAPGKELEGVSGISSSDGNTYYADSVKGRFTISSDNAKNTVYLQMNSLKAEDTAVYYCAREPPDSSWYLDGSPEFFKYWGQGTLVTVSS"
8,no binding,"32C9PMP1_H1 (VHH, name in Kabat numbering, Humanized 32C9 variant) VHH: EVQLVESGGGLVQPGGSLRLSCAASGFTFSDYDIGWVRQAPGKGREGVSGISSSDGNTYYADSVKGRFTISRDNAKNTVYLQMNSLKAEDTAVYYCAREPPDSSWYLDGSPEFFKYWGQGTQVTVSS"
9,no binding,"32C9PMP1_H6 (VHH, name in Kabat numbering, Humanized 32C9 variant) VHH: EVQLVESGGGLVQPGGSLRLSCAASGFTFDDYDIGWFRQAPGKELEGVSGISSSDGNTYYADSVKGRFTISRDNAKNTLYLQMNSLKAEDTAVYYCAREPPDSSWYLDGSPEFFKYWGQGTQVTVSS"

# Continued, binder first:
row,Binder,binding result
1,"32C9PMP2_C9 (VHH, name in Kabat numbering, Humanized 32C9 variant) VHH: EVQLVESGGGLVQAGGSLRLSCAASGFTFDDYDIGWFRQAPGKGREGVSGISSSDGNTYYADSVKGRFTISSDNAKNTLYLQMNSLKAEDTAVYYCAREPPDSSWYLDGSPEFFKYWGQGTLVTVSS",no binding
2,"32C9PMP1_A2 (VHH, name in Kabat numbering, Humanized 32C9 variant) VHH: EVQLVESGGGLVQPGGSLRLSCAASGFTFDDYDIGWVRQAPGKEREWVSGISSSDGNTYYADSVKGRFTISSDNAKNTVYLQMNSLKAEDTAVYYCAREPPDSSWYLDGSPEFFKYWGQGTLVTVSS",no binding
3,"32C9PMP1_A3 (VHH, name in Kabat numbering, Humanized 32C9 variant) VHH: EVQLVESGGGLVQAGGSLRLSCAASGFTFSDYDIGWVRQAPGKGREGVSGISSSDGNTYYADSVKGRFTISRDNAKNTVYLQMNSLKAEDTAVYYCAREPPDSSWYLDGSPEFFKYWGQGTQVTVSS",no binding
4,"32C9PMP1_A11 (VHH, name in Kabat numbering, Humanized 32C9 variant) VHH: EVQLVESGGGLVQPGGSLRLSCAASGFTFSDYDIGWVRQAPGKEREWVSGISSSDGNTYYADSVKGRFTISSDNAKNTVYLQMNSLKAEDTAVYYCAREPPDSSWYLDGSPEFFKYWGQGTLVTVSS",no binding
5,"32C9PMP1_B11 (VHH, name in Kabat numbering, Humanized 32C9 variant) VHH: EVQLVESGGGLVQAGGSLRLSCAASGFTFSDYDIGWFRQAPGKGREGVSGISSSDGNTYYADSVKGRFTISRDNAKNTVYLQMNSLKAEDTAVYYCAREPPDSSWYLDGSPEFFKYWGQGTQVTVSS",no binding
6,"32C9PMP1_E2 (VHH, name in Kabat numbering, Humanized 32C9 variant) VHH: EVQLVESGGGLVQAGGSLRLSCAASGFTFSDYDIGWVRQAPGKGREGVSGISSSDGNTYYADSVKGRFTISRDNAKNTLYLQMNSLKAEDTAVYYCAREPPDSSWYLDGSPEFFKYWGQGTLVTVSS",no binding
7,"32C9PMP1_G8 (VHH, name in Kabat numbering, Humanized 32C9 variant) VHH: EVQLVESGGGLVQPGGSLRLSCAASGFTFSDYDIGWFRQAPGKGREGVSGISSSDGNTYYADSVKGRFTISSDNAKNTVYLQMNSLKAEDTAVYYCAREPPDSSWYLDGSPEFFKYWGQGTLVTVSS",no binding
8,"32C9PMP1_H8 (VHH, name in Kabat numbering, Humanized 32C9 variant) VHH: EVQLVESGGGLVQAGGSLRLSCAASGFTFDDYDIGWVRQAPGKGREGVSGISSSDGNTYYADSVKGRFTISRDNAKNTLYLQMNSLRPEDTAVYYCAREPPDSSWYLDGSPEFFKYWGQGTLVTVSS",no binding

# Target: T1, human IL6R
# Test: SPR (Biacore), periplasmic extract
# Remark: another data set of the same source
# Description: Selection outputs were analyzed by picking individual colonies and growing them overnight in 1 ml 2×YT (Yeast Tryptone) medium+100 ug/ml Carbenicillin at 37 C. Nanobody containing periplasmic extracts were prepared, diluted 1/10 in PBS and subsequently tested for antigen binding in ELISA. Clones with the highest ELISA signals were sequenced and analyzed on Biacore. […] The off-rate of the best clone from the CDR3 library was 7×10e-4 s-1.
row,koff,Binder
1,0.00023 s⁻¹,IL6R65PMP18G8 (VHH) VHH: EVQLVESGGGLVQPGGSLRLSCAASGTTFKINVMAWYRQAPGKGRELVAGIITGGTTTYADSVKGRFTISRDNAKNTLYLQMNSLRPEDTAVYYCAFVTTNSDYDLGRDYWGQGTLVTVSS
2,0.00033 s⁻¹,IL6R65PMP18G11 (VHH) VHH: EVQLVESGGGLVQPGGSLRLSCAASGSIFKINVMAWYRQAPGKGRELVAAIINGGTTSYADSVKGRFTISRDNAKNTLYLQMNSLRPEDTAVYYCAFVTTNSDYDLGRDYWGQGTLVTVSS
3,0.00074 s⁻¹,"IL6R65PMP19H2 (VHH, CDR3 library clone) VHH: EVQLVESGGGLVQPGGSLRLSCAASGSIFKVNAMGWYRQAPGKGRELVAGIISGGSTNYADSVKGRFTISRDNAKNTLYLQMNSLRPEDTAVYYCAFITADTDYDLGKRYWGQGTLVTVSS"
4,0.0011 s⁻¹,"IL6R65PMP19H7 (VHH, CDR3 library clone) VHH: EVQLVESGGGLVQPGGSLRLSCAASGSIFKVNAMGWYRQAPGKGRELVAGIISGGSTNYADSVKGRFTISRDNAKNTLYLQMNSLRPEDTAVYYCAFITADTEYDLGKRFWGQGTLVTVSS"

# Further lines, the binder ahead of its results:
row,Binder,koff
1,IL6R65PMP18G12 (VHH) VHH: EVQLVESGGGLVQPGGSLRLSCAASGSIFKINVMAWYRQAPGKGRELVAAIINSGTTSYADSVKGRFTISRDNAKNTLYLQMNSLRPEDTAVYYCAFVTTNSDYDLGRDYWGQGTLVTVSS,0.00034 s⁻¹
2,"IL6R65PMP19A4 (VHH, CDR3 library clone) VHH: EVQLVESGGGLVQPGGSLRLSCAASGSIFKVNAMGWYRQAPGKGRELVAGIISGGSTNYADSVKGRFTISRDNAKNTLYLQMNSLRPEDTAVYYCAFITTDTNYDLGKRSWGQGTLVTVSS",0.00089 s⁻¹
